According to patent publication US20160046707A1:

Assays:
[1] = target: recombinant human CCL20 (R&D Systems, #360-MP-025/CF) (human) (UniProt P78556); test: cell-based or functional assay
[2] = target: recombinant human CCL20 (R&D Systems, #360-MP-025/CF) (human) (UniProt P78556); test: SPR (Biacore): antibody captured on anti-human Fc, 100 nM chemokine injected; ratio = chemokine binding level over antibody capture level
[3] = target: recombinant human CCL20 (R&D Systems, #360-MP-025/CF) (human) (UniProt P78556); test: SPR (Biacore), antibody captured by anti-human Fc, human CCL20 injected (monovalent format), 1:1 Langmuir, average of two experiments

Sequence of recombinant human CCL20 (R&D Systems, #360-MP-025/CF) (human) (P78556 other isoform, or with tags, fused parts or gaps limits assumed): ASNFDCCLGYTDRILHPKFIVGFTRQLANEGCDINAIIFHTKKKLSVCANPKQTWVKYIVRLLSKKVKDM

Binder | IC50, chemotaxis of human CCR6-transduced B300.19 cells toward 10 nM human CCL20 [1] | IC90, chemotaxis of human CCR6-transduced B300.19 cells toward 10 nM human CCL20 [1] | IC95, chemotaxis of human CCR6-transduced B300.19 cells toward 10 nM human CCL20 [1] | ReqCk/ReqAb ratio [2] | Kd [3] | koff [3] | kon [3] | IC50, chemotaxis assay, Assay-1 [1] | IC50, chemotaxis assay, Assay-2 [1] | IC50, chemotaxis assay, Assay-3 [1] | IC50, chemotaxis assay, Average [1] | IC90, chemotaxis assay, Assay-1 [1] | IC90, chemotaxis assay, Assay-2 [1] | IC90, chemotaxis assay, Assay-3 [1] | IC90, chemotaxis assay, Average [1] | IC95, chemotaxis assay, Assay-1 [1] | IC95, chemotaxis assay, Assay-2 [1] | IC95, chemotaxis assay, Assay-3 [1] | IC95, chemotaxis assay, Average [1]
mouse anti-human CCL20 monoclonal antibody 36F7C10 (antibody, V domains shown) VH: QVQLQQPGAELVKPGASVKMSCKASGYTFTNYWMHWVKQRPGQGLEWIGVIDPSDSYTTYNQKFKGKATLTVDTSSSTAYMQLSSLTSEDSAVYYCTRGNYGVDYAMDYWGQGTSVTVSS VL: DIQMTQSPASLSASVGETVTITCGASENIYGALNWYQRKQGKSPQLLIYGATNLADGMSSRFSGSGSGRQYSLKISSLHPDDVATYYCQNVLITPYTFGGGTKLEIK | 1.7 nM | 3.94 nM | 7.68 nM | – | – | – | – | – | – | – | – | – | – | – | – | – | – | – | –
chimeric 36F7C10 antibody (36F7C10-hFc) (antibody, V domains shown) VH: QVQLQQPGAELVKPGASVKMSCKASGYTFTNYWMHWVKQRPGQGLEWIGVIDPSDSYTTYNQKFKGKATLTVDTSSSTAYMQLSSLTSEDSAVYYCTRGNYGVDYAMDYWGQGTSVTVSS VL: DIQMTQSPASLSASVGETVTITCGASENIYGALNWYQRKQGKSPQLLIYGATNLADGMSSRFSGSGSGRQYSLKISSLHPDDVATYYCQNVLITPYTFGGGTKLEIK | 1.44 nM | 3.51 nM | 5.48 nM | 0.153 | – | – | – | – | – | – | – | – | – | – | – | – | – | – | –
humanized anti-human CCL20 antibody 36LK3/36HC2 (antibody, human IgG1, kappa, V domains shown) VH: QVQLVQSGAEVKKPGASVKVSCKASGYTFTNYWMHWVRQAPGQGLEWMGVIDPSDSYTTYAQKFQGRVTMTVDTSTSTVYMELSSLRSEDTAVYYCARGNYGVDYAMDYWGQGTLVTVSS VL: DIQMTQSPSSLSASVGDRVTITCGASENIYGALNWYQRKPGKAPKLLIYGATNLADGVPSRFSGSGSGRDYTLTISSLQPEDFATYYCQNVLITPYTFGQGTKLEIKR | – | – | – | 0.143 | 0.07 nM | 0.00117 s⁻¹ | 1.66e+07 M⁻¹ s⁻¹ | 0.65 nM | 1.09 nM | 1.3 nM | 1.01 nM | 3.55 nM | 3.35 nM | 6.79 nM | 4.56 nM | 7.59 nM | 5.41 nM | 13.9 nM | 8.97 nM
humanized anti-human CCL20 antibody 36LC3/36HC2 (antibody, human IgG1, kappa, V domains shown) VH: QVQLVQSGAEVKKPGASVKVSCKASGYTFTNYWMHWVRQAPGQGLEWMGVIDPSDSYTTYAQKFQGRVTMTVDTSTSTVYMELSSLRSEDTAVYYCARGNYGVDYAMDYWGQGTLVTVSS VL: DIQMTQSPSSLSASVGDRVTITCRASENIYGALNWYQQKPGKAPKLLIYGATNLADGVPSRFSGSGSGRQYSLTISSLQPEDFATYYCQNVLITPYTFGGGTKLEIKR | – | – | – | 0.156 | 0.044 nM | 0.00061 s⁻¹ | 1.45e+07 M⁻¹ s⁻¹ | 0.9 nM | 1.26 nM | 1.2 nM | 1.12 nM | 4.64 nM | 5.82 nM | 5.3 nM | 5.25 nM | 11.8 nM | > 66.8 nM | 10.3 nM | –
